From the supplement of paper PMC9112550, “Optimization of the antimicrobial peptide Bac7 by deep mutational scanning” (BMC Biology, 2022)

System: Escherichia coli TOP10
Assay: shrunken log2 fold change of peptide-encoding DNA abundance (4.5 h post-induction vs induction); higher = less antimicrobial activity (less host growth inhibition)
Conditions: time post-induction: 4.5 h; library: site-saturation at positions 5, 18, 19, 20
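Further: peptides expressed intracellularly from a pBAD plasmid library in pooled LB shake-flask culture, induced with 0.3% L-arabinose, DNA abundance read by NGS, three biological replicates, DESeq2 with apeglm shrinkage.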

RRIRKRPPRLPRPRPRPSVPPRP
shrunken log2 fold change: 0.21

RRIRMRPPRLPRPRPRPSWGPRP
shrunken log2 fold change: 0.155

RRIRMRPPRLPRPRPRPCHIPRP
shrunken log2 fold change: -0.0247

RRIRTRPPRLPRPRPRPNGLPRP
shrunken log2 fold change: -0.00146

RRIRDRPPRLPRPRPRPCLCPRP
shrunken log2 fold change: 0.0206

RRIRCRPPRLPRPRPRPYPGPRP
shrunken log2 fold change: -0.0268

RRIRERPPRLPRPRPRPDFSPRP
shrunken log2 fold change: 0.0617

RRIRLRPPRLPRPRPRPVNTPRP
shrunken log2 fold change: -0.186

RRIRGRPPRLPRPRPRPTTHPRP
shrunken log2 fold change: 0.875

RRIRNRPPRLPRPRPRPDNKPRP
shrunken log2 fold change: -1.35

RRIRCRPPRLPRPRPRPTDKPRP
shrunken log2 fold change: -0.243

RRIRSRPPRLPRPRPRPNRWPRP
shrunken log2 fold change: -0.0554

RRIRERPPRLPRPRPRPMWSPRP
shrunken log2 fold change: -0.351

RRIRNRPPRLPRPRPRPNTWPRP
shrunken log2 fold change: -0.382

RRIRNRPPRLPRPRPRPYWYPRP
shrunken log2 fold change: -0.177

RRIRMRPPRLPRPRPRPYEIPRP
shrunken log2 fold change: 0.0237

RRIRWRPPRLPRPRPRPSMNPRP
shrunken log2 fold change: 0.0339

RRIRRRPPRLPRPRPRPVIMPRP
shrunken log2 fold change: 0.189

RRIRKRPPRLPRPRPRPIYKPRP
shrunken log2 fold change: -0.0701

RRIRSRPPRLPRPRPRPLVYPRP
shrunken log2 fold change: -0.206

RRIRPRPPRLPRPRPRPWNFPRP
shrunken log2 fold change: -0.205

RRIRRRPPRLPRPRPRPKICPRP
shrunken log2 fold change: 0.0561

RRIRTRPPRLPRPRPRPCPVPRP
shrunken log2 fold change: -0.175

RRIRYRPPRLPRPRPRPSVIPRP
shrunken log2 fold change: -0.616

RRIRLRPPRLPRPRPRPGWVPRP
shrunken log2 fold change: 0.117

RRIRYRPPRLPRPRPRPYPYPRP
shrunken log2 fold change: -0.0257

RRIRFRPPRLPRPRPRPCARPRP
shrunken log2 fold change: 0.232

RRIRVRPPRLPRPRPRPPCKPRP
shrunken log2 fold change: 0.106

RRIRRRPPRLPRPRPRPISMPRP
shrunken log2 fold change: 0.0655

RRIRKRPPRLPRPRPRPLCKPRP
shrunken log2 fold change: 0.0465

RRIRHRPPRLPRPRPRPTWLPRP
shrunken log2 fold change: 0.326

RRIRDRPPRLPRPRPRPDRLPRP
shrunken log2 fold change: 0.0401

RRIRGRPPRLPRPRPRPPAVPRP
shrunken log2 fold change: 1.27

RRIRARPPRLPRPRPRPQDSPRP
shrunken log2 fold change: -0.0459

RRIRIRPPRLPRPRPRPSGYPRP
shrunken log2 fold change: 0.00435

RRIRQRPPRLPRPRPRPPMIPRP
shrunken log2 fold change: 0.0721

RRIRMRPPRLPRPRPRPQNYPRP
shrunken log2 fold change: -0.377

RRIRWRPPRLPRPRPRPYEMPRP
shrunken log2 fold change: -0.893

RRIRARPPRLPRPRPRPDSAPRP
shrunken log2 fold change: 0.608

RRIRYRPPRLPRPRPRPMLKPRP
shrunken log2 fold change: -0.374

RRIRQRPPRLPRPRPRPSHVPRP
shrunken log2 fold change: -0.367

RRIRIRPPRLPRPRPRPCEDPRP
shrunken log2 fold change: -0.424

RRIRIRPPRLPRPRPRPNLMPRP
shrunken log2 fold change: -0.377

RRIRYRPPRLPRPRPRPARRPRP
shrunken log2 fold change: 0.234

RRIRIRPPRLPRPRPRPIEHPRP
shrunken log2 fold change: 0.00487

RRIRNRPPRLPRPRPRPVTSPRP
shrunken log2 fold change: -0.469

RRIRIRPPRLPRPRPRPDFFPRP
shrunken log2 fold change: -0.415

RRIRRRPPRLPRPRPRPGEKPRP
shrunken log2 fold change: 0.0687

RRIRNRPPRLPRPRPRPGIRPRP
shrunken log2 fold change: 0.0989

RRIRIRPPRLPRPRPRPHHRPRP
shrunken log2 fold change: -0.46

RRIRDRPPRLPRPRPRPNPQPRP
shrunken log2 fold change: -0.19

RRIRARPPRLPRPRPRPDMSPRP
shrunken log2 fold change: 0.0274

RRIRSRPPRLPRPRPRPRTAPRP
shrunken log2 fold change: 0.0119

RRIRMRPPRLPRPRPRPEANPRP
shrunken log2 fold change: 3.83

RRIRQRPPRLPRPRPRPVCDPRP
shrunken log2 fold change: 0.0934

RRIRKRPPRLPRPRPRPSSQPRP
shrunken log2 fold change: 0.0821

RRIRMRPPRLPRPRPRPTNQPRP
shrunken log2 fold change: 0.279

RRIRNRPPRLPRPRPRPRYKPRP
shrunken log2 fold change: -0.566

RRIRQRPPRLPRPRPRPTCLPRP
shrunken log2 fold change: -0.108

RRIRCRPPRLPRPRPRPECHPRP
shrunken log2 fold change: 0.0568

RRIRVRPPRLPRPRPRPYNGPRP
shrunken log2 fold change: -0.514

RRIRHRPPRLPRPRPRPQFKPRP
shrunken log2 fold change: -0.024

RRIRLRPPRLPRPRPRPVGYPRP
shrunken log2 fold change: -0.0152

RRIRIRPPRLPRPRPRPMQNPRP
shrunken log2 fold change: 0.112

RRIRTRPPRLPRPRPRPMVMPRP
shrunken log2 fold change: -0.0384

RRIRQRPPRLPRPRPRPVLFPRP
shrunken log2 fold change: 0.166

RRIRYRPPRLPRPRPRPYIPPRP
shrunken log2 fold change: -0.457

RRIRHRPPRLPRPRPRPGWIPRP
shrunken log2 fold change: -0.051

RRIRFRPPRLPRPRPRPNDAPRP
shrunken log2 fold change: 0.186

RRIRKRPPRLPRPRPRPPSPPRP
shrunken log2 fold change: 0.588

RRIRSRPPRLPRPRPRPPDAPRP
shrunken log2 fold change: 0.415

RRIRHRPPRLPRPRPRPNYCPRP
shrunken log2 fold change: -0.0948

RRIRTRPPRLPRPRPRPADHPRP
shrunken log2 fold change: -0.0507

RRIRVRPPRLPRPRPRPNIMPRP
shrunken log2 fold change: -0.512

RRIRYRPPRLPRPRPRPLTQPRP
shrunken log2 fold change: -0.416

RRIRWRPPRLPRPRPRPWIIPRP
shrunken log2 fold change: -0.267

RRIRMRPPRLPRPRPRPWHWPRP
shrunken log2 fold change: 0.0862

RRIRGRPPRLPRPRPRPYFTPRP
shrunken log2 fold change: -0.123

RRIRMRPPRLPRPRPRPFIKPRP
shrunken log2 fold change: -0.432

RRIRFRPPRLPRPRPRPHEEPRP
shrunken log2 fold change: 0.00592

RRIRFRPPRLPRPRPRPLWTPRP
shrunken log2 fold change: -0.0265

RRIRPRPPRLPRPRPRPPMVPRP
shrunken log2 fold change: 0.0188

RRIRNRPPRLPRPRPRPLMHPRP
shrunken log2 fold change: -0.0721

RRIRLRPPRLPRPRPRPKLCPRP
shrunken log2 fold change: 0.115

RRIRKRPPRLPRPRPRPYQGPRP
shrunken log2 fold change: -0.231

RRIRSRPPRLPRPRPRPIRPPRP
shrunken log2 fold change: -0.157

RRIRPRPPRLPRPRPRPGQQPRP
shrunken log2 fold change: 0.167

RRIRMRPPRLPRPRPRPISMPRP
shrunken log2 fold change: 0.0246

RRIRARPPRLPRPRPRPYKGPRP
shrunken log2 fold change: -0.144

RRIRIRPPRLPRPRPRPNLKPRP
shrunken log2 fold change: -0.484

RRIRKRPPRLPRPRPRPSEMPRP
shrunken log2 fold change: -0.17

RRIRGRPPRLPRPRPRPMKMPRP
shrunken log2 fold change: 0.00988

RRIRDRPPRLPRPRPRPQRIPRP
shrunken log2 fold change: -0.142

RRIRHRPPRLPRPRPRPDSYPRP
shrunken log2 fold change: -0.0167

RRIRCRPPRLPRPRPRPWTSPRP
shrunken log2 fold change: -0.419

RRIRCRPPRLPRPRPRPDFGPRP
shrunken log2 fold change: -0.275

RRIRYRPPRLPRPRPRPRRCPRP
shrunken log2 fold change: 0.254

RRIRIRPPRLPRPRPRPTYGPRP
shrunken log2 fold change: -0.548

RRIRERPPRLPRPRPRPTSYPRP
shrunken log2 fold change: -0.288

RRIRLRPPRLPRPRPRPWYVPRP
shrunken log2 fold change: -0.125

RRIRYRPPRLPRPRPRPHIPPRP
shrunken log2 fold change: -0.452

RRIRKRPPRLPRPRPRPSCIPRP
shrunken log2 fold change: -0.0677

RRIRWRPPRLPRPRPRPGTLPRP
shrunken log2 fold change: -0.0473

RRIRCRPPRLPRPRPRPPLCPRP
shrunken log2 fold change: 0.674

RRIRLRPPRLPRPRPRPCVLPRP
shrunken log2 fold change: -0.44

RRIRPRPPRLPRPRPRPPSEPRP
shrunken log2 fold change: 0.447

RRIRPRPPRLPRPRPRPLWNPRP
shrunken log2 fold change: -0.0917

RRIRCRPPRLPRPRPRPCHAPRP
shrunken log2 fold change: -0.191

RRIRMRPPRLPRPRPRPKPWPRP
shrunken log2 fold change: 1.12

RRIRDRPPRLPRPRPRPCRLPRP
shrunken log2 fold change: 0.00469

RRIRERPPRLPRPRPRPVAPPRP
shrunken log2 fold change: 0.246

RRIRTRPPRLPRPRPRPTCKPRP
shrunken log2 fold change: -0.047

RRIRLRPPRLPRPRPRPDPIPRP
shrunken log2 fold change: 0.0451

RRIRKRPPRLPRPRPRPFSKPRP
shrunken log2 fold change: -0.0535

RRIRERPPRLPRPRPRPYFLPRP
shrunken log2 fold change: -0.437

RRIRPRPPRLPRPRPRPLHSPRP
shrunken log2 fold change: -0.207

RRIRFRPPRLPRPRPRPSYLPRP
shrunken log2 fold change: -0.736

RRIRYRPPRLPRPRPRPVCKPRP
shrunken log2 fold change: -1.41

RRIRQRPPRLPRPRPRPTRWPRP
shrunken log2 fold change: 0.561

RRIRHRPPRLPRPRPRPMCTPRP
shrunken log2 fold change: -0.696

RRIRVRPPRLPRPRPRPMQRPRP
shrunken log2 fold change: -0.0413

RRIRTRPPRLPRPRPRPECMPRP
shrunken log2 fold change: 0.378

RRIRNRPPRLPRPRPRPHAQPRP
shrunken log2 fold change: -0.835

RRIRFRPPRLPRPRPRPTCNPRP
shrunken log2 fold change: -0.178

RRIRLRPPRLPRPRPRPRVDPRP
shrunken log2 fold change: -0.0238
